Target: T1, HA-tagged Ddi1^Δ202-299 (yeast, UniProt P40087 1-428, Δ202-299)
T1 sequence (looked up): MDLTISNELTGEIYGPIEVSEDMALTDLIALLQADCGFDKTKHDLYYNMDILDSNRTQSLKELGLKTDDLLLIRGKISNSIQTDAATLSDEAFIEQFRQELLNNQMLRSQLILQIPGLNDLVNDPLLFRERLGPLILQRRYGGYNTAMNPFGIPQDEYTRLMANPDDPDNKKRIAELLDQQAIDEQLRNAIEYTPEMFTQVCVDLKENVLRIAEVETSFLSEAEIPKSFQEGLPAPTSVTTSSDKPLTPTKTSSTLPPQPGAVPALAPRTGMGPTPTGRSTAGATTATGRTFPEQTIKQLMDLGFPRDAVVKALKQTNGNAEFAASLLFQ
Experiment: co-IP

B1: Cdc48-GFP (natural protein, yeast, UniProt P25694 1-835, looked up)
chain: MGEEHKPLLDASGVDPREEDKTATAILRRKKKDNMLLVDDAINDDNSVIAINSNTMDKLELFRGDTVLVKGKKRKDTVLIVLIDDELEDGACRINRVVRNNLRIRLGDLVTIHPCPDIKYATRISVLPIADTIEGITGNLFDVFLKPYFVEAYRPVRKGDHFVVRGGMRQVEFKVVDVEPEEYAVVAQDTIIHWEGEPINREDEENNMNEVGYDDIGGCRKQMAQIREMVELPLRHPQLFKAIGIKPPRGVLMYGPPGTGKTLMARAVANETGAFFFLINGPEVMSKMAGESESNLRKAFEEAEKNAPAIIFIDEIDSIAPKRDKTNGEVERRVVSQLLTLMDGMKARSNVVVIAATNRPNSIDPALRRFGRFDREVDIGIPDATGRLEVLRIHTKNMKLADDVDLEALAAETHGYVGADIASLCSEAAMQQIREKMDLIDLDEDEIDAEVLDSLGVTMDNFRFALGNSNPSALRETVVESVNVTWDDVGGLDEIKEELKETVEYPVLHPDQYTKFGLSPSKGVLFYGPPGTGKTLLAKAVATEVSANFISVKGPELLSMWYGESESNIRDIFDKARAAAPTVVFLDELDSIAKARGGSLGDAGGASDRVVNQLLTEMDGMNAKKNVFVIGATNRPDQIDPAILRPGRLDQLIYVPLPDENARLSILNAQLRKTPLEPGLELTAIAKATQGFSGADLLYIVQRAAKYAIKDSIEAHRQHEAEKEVKVEGEDVEMTDEGAKAEQEPEVDPVPYITKEHFAEAMKTAKRSVSDAELRRYEAYSQQMKASRGQFSNFNFNDAPLGTTATDNANSNNSAPSGAGAAFGSNAEEDDDLYS
  fold more Cdc48 bound, normalized for the amount of precipitated Ddi1^Δ202-299: 2.1 fold

Source: publication PMC5896933 (Molecular Biology of the Cell, 2018)
